Assay results from patent US20080254024A1 (Genentech, published 2008).

T1: NH2-terminal GD epitope-tagged human EphB2 overexpressed on cells (HT1080-EphB2, SVT2-EphB2) (human, UniProt P29323 19-1055)
T1 construct: whole, on cells; HT1080-EphB2 cells also carry endogenous EphB2; also called full-length EphB2
T1 sequence (looked up): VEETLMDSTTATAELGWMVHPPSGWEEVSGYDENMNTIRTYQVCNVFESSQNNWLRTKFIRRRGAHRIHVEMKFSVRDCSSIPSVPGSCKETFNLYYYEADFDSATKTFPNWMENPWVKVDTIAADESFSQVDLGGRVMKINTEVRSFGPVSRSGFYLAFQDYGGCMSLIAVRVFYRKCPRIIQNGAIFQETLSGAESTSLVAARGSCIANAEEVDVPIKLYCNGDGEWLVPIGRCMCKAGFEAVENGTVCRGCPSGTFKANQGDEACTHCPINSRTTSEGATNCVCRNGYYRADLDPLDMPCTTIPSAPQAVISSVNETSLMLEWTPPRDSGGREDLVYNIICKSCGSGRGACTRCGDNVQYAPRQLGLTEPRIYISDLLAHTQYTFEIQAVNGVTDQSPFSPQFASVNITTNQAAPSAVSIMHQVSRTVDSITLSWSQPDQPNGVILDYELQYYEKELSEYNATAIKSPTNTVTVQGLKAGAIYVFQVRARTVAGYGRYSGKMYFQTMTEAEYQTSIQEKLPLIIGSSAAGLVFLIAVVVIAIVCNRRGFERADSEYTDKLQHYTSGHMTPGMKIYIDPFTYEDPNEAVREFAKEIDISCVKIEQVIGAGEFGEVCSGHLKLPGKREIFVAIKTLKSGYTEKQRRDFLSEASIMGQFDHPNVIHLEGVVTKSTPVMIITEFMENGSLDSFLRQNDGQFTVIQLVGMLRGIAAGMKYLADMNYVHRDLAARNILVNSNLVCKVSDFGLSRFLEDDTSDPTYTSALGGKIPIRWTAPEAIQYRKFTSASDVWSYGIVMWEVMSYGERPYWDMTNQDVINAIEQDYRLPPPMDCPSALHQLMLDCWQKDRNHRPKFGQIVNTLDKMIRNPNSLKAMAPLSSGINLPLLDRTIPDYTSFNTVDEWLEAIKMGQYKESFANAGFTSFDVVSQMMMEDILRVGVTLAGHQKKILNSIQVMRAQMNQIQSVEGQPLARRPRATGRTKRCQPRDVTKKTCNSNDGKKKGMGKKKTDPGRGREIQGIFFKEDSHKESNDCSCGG

T2: endogenous human EphB2 on cells or tissue (HT1080-GD vector control cells, colorectal cancer cell lines, … (human, UniProt P29323 19-1055))
T2 construct: whole, on cells; also called vector control HT1080 cell line
T2 sequence (looked up): T1 sequence (looked up)

T3: polyhis-tagged human EphB2 (baculovirus-derived His8-tagged EphB2 receptor) (human, UniProt P29323 19-543)
T3 construct: extracellular domain; also called polyhis tagged EphB2; purified EphB2 immunogen; not shown: His8 tag
T3 sequence (looked up): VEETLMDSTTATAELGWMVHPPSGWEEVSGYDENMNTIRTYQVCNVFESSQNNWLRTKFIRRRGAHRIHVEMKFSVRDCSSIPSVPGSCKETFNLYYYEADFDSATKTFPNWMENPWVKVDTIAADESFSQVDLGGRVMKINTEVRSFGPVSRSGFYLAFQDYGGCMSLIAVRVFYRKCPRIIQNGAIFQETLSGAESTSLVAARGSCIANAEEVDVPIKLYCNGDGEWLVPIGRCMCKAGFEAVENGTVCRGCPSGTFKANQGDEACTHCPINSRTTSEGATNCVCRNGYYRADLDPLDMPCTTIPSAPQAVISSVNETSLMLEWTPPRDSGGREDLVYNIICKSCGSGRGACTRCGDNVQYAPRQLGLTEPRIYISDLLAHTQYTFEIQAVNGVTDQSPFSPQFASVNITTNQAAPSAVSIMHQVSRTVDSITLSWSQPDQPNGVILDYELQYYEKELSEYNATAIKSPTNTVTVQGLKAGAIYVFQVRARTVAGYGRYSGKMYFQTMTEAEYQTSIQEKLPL

B1: anti-EphB2 monoclonal antibody produced by hybridoma cell line 2H9.11.14 (ATCC PTA-6606) (antibody, IgG1, V domains shown)
VH: QVQLQQSGAELAKPGASVKMSCKASGYTFTSYWMHWVKQRPGQGLEWIGFINPSTGYTDYNQKFKDKATLTVKSSNTAYMQLSRLTSEDSAVYYCTRRLKLLRYAMDYWGQGTTLTVSA
VL: DIVMTQSPSSLSVSAGEKVTMNCKSSQSLLNSGNQENYLAWYQQKPGQPPKLLIYGASTRESGVPDRFTGSGSGTDFTLTISSVQAEDLAVYYCQNDHSYPFTFGAGTKVEIKR
notes: 125I-labelled in the Scatchard and uptake assays; also called Mab 2H9; MAb 2H9
B2: immunoconjugate 2H9-MC-vc-PAB-MMAE (antibody, mouse IgG1, V domains shown)
VH: B1 VH
VL: B1 VL
modifications: MC-vc-PAB-MMAE drug-linker covalently coupled to the antibody; sites and chain not stated
notes: also called MMAE-vc-2H9; 2H9-vc-MMAE

Assays:
[1] = biological target: T1, NH2-terminal GD epitope-tagged human …; assay: saturation binding on HT1080-EphB2 cells, HRP-conjugated secondary antibody, absorbance at 450 nm
[2] = biological target: T2, endogenous human EphB2 on cells or …; assay: Scatchard analysis of 125I-labelled MAb 2H9 competed with unlabelled MAb 2H9 on HT1080-GD cells
[3] = biological target: T1, NH2-terminal GD epitope-tagged human …; assay: Scatchard analysis, 125I-labeled MAb 2H9 with unlabeled MAb 2H9 on HT1080-EphB2 cells, on ice
[4] = biological target: T2, endogenous human EphB2 on cells or …; assay: saturation binding on HT1080-GD cells, HRP-conjugated secondary antibody, absorbance at 450 nm
[5] = biological target: T3, polyhis-tagged human EphB2 …; assay: SPR (BIAcore 3000), antibody immobilized on CM5 chip, polyhis-tagged EphB2 injected, 1:1 model
Experimental: Binding affinity of Mab 2H9 was determined by surface plasmon resonance using Pharmacia BIAcore® 3000 (BIAcore AB, Uppsala, Sweden) at room temperature (see, e.g., Morton et al. (1998) Methods in Enzymology, 295, 268-294). Anti-EphB2 antibodies were immobilized to the sensor chip (CM5) through primary amine groups. The carboxymethylated sensor chip surface matrix was activated by injecting 20 μl of a mixture of 0.025 M N-hydroxysuccinimide and 0.1 M N-ethyl-N′(dimethylaminopropyl) carbodiimide at 5 μl/min. 5-10 μl of 10 μg/ml solution of anti-EphB2 antibodies in 10 mM sodium acetate, pH 4.5, were injected at 5 μl/min. After coupling, unoccupied sites on the chip were blocked by injecting 20 μl of 1M ethanolamine, pH 8.5. The running buffer was PBS containing 0.05% polysorbate 20. For kinetic measurements, two-fold serial dilutions of polyhis-tagged EphB2 in running buffer were injected over the flow cells for 3 minutes at a flow rate of 30 μl/min and the bound polyhis tagged EphB2 was allow to dissociate for 20 minutes. The binding surface was regenerated by injecting 20 μl of 10 mM glycine-HCl (pH 1.5). […] There was no significant non-specific binding of polyhis tagged EphB2 to flow cell one. For calculate apparent binding affinity, data were analyzed using a 1:1 binding model using global fitting. The association and dissociation rate constants were fitted simultaneously (BIAevaluation software).

[6] = biological target: T1, NH2-terminal GD epitope-tagged human …; assay: cell-based or functional assay
[7] = biological target: T1, NH2-terminal GD epitope-tagged human …; assay: Scatchard analysis of 125I-labelled MAb 2H9 competed with unlabelled MAb 2H9 on HT1080-EphB2 cells
[8] = biological target: T2, endogenous human EphB2 on cells or …; assay: Scatchard analysis, 125I-labeled MAb 2H9 with unlabeled MAb 2H9 on HT1080-GD cells, on ice; HT1080-GD cells, Scatchard analysis

Binder	EC50 (read off the curve) [1]	Kd [2]	Kd [3]	EC50 (read off the curve) [4]	Kd [5]	koff [5]	kon [5]	internalization of 125I-labeled MAb 2H9 by HT1080-EphB2 cells after shift to 37° C. for 1 hour [6]	Kd [7]	Kd [8]	antibody concentration required for half-maximal cell killing (IC50), Cell Titer-Glo viability after 48 h [6]
B1	~0.02 µg/mL	4.4 nM	~4 nM	~0.02 µg/mL	0.12 nM	1.03e-05 s⁻¹	82800 M⁻¹ s⁻¹	~2 fold	4.1 nM	~4 nM	
B2	~0.02 µg/mL										0.006 µg/mL
